Our source for the percent by which the pulldown by Rab12 was impaired, against wild type RILP and percent by which the pulldown by Rab12 was inhibited, against wild type RILP values is publication PMC8119438.

This test addresses GST-Rab12 (mouse) (UniProt P35283). Briefly: pull-down; 20 μg GST, GST-Rab12 or GST-Rab12(K71R) on glutathione agarose beads, 18 h at 4 °C with 500 μg lysate of RBL cells transfected with T7-tagged RILP, RILP mutants, RILP-L1 or RILP-L2, 0.5 mM GTPγS; blot anti-T7 (Fig. 2b,c; Supplementary figure S3).
Chain of UniProt P35283 (P35283 other isoform, or with tags, fused parts or gaps): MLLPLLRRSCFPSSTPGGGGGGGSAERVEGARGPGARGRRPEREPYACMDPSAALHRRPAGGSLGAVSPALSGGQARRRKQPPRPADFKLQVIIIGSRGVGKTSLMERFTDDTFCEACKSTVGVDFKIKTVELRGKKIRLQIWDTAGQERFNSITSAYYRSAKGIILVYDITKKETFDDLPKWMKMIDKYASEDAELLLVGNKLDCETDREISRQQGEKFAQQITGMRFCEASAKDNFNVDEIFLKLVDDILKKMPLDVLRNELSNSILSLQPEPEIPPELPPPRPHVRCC

B1: T7-RILP(L231A) (natural protein)
chain: MEPRRAAPRLPSQASSSVGAGSAAELVYHLAGALGTELQGLARRFGPDAAAGLVPLVVRALELLEKAAVGPAPDSLQVSAQQAEVELRRLREENQRLRQELGSGPQEERALLRQLKEVTDRQRDELRAHNRDLQRRSQETEALQEQLQRLLLINSELRHKLAAVQTQLRAAQDRERERQIAQDGSSQLAKEQSLEPDAATSDDPVDTQKQPGNLPEAVQCGFSREELKQIAQERNELKANVFLLKEELAYFQRELLTDHRVPGLLLEAMKVAVKKQRRKIKAKMLGTPEEAESSEDEDGSWLLLSNDKEDVPLVPESRIQNFFGLWYRGETEAPEAETSNPASSSLQKGEETPQQPHLQPVNSPPAPNS
For B1, the percent by which the pulldown by Rab12 was impaired, against wild type RILP was 85%.

B2: T7-RILP(E233A) (natural protein)
chain: MEPRRAAPRLPSQASSSVGAGSAAELVYHLAGALGTELQGLARRFGPDAAAGLVPLVVRALELLEKAAVGPAPDSLQVSAQQAEVELRRLREENQRLRQELGSGPQEERALLRQLKEVTDRQRDELRAHNRDLQRRSQETEALQEQLQRLLLINSELRHKLAAVQTQLRAAQDRERERQIAQDGSSQLAKEQSLEPDAATSDDPVDTQKQPGNLPEAVQCGFSREELKQILQARNELKANVFLLKEELAYFQRELLTDHRVPGLLLEAMKVAVKKQRRKIKAKMLGTPEEAESSEDEDGSWLLLSNDKEDVPLVPESRIQNFFGLWYRGETEAPEAETSNPASSSLQKGEETPQQPHLQPVNSPPAPNS
B2: the percent by which the pulldown by Rab12 was inhibited, against wild type RILP was 90%.
